Laboratory results taken from patent US20060003434.

Test system: T1, FLAG-Heme1B (human Eme1B, FLAG tagged at the C terminus)
T1 sequence: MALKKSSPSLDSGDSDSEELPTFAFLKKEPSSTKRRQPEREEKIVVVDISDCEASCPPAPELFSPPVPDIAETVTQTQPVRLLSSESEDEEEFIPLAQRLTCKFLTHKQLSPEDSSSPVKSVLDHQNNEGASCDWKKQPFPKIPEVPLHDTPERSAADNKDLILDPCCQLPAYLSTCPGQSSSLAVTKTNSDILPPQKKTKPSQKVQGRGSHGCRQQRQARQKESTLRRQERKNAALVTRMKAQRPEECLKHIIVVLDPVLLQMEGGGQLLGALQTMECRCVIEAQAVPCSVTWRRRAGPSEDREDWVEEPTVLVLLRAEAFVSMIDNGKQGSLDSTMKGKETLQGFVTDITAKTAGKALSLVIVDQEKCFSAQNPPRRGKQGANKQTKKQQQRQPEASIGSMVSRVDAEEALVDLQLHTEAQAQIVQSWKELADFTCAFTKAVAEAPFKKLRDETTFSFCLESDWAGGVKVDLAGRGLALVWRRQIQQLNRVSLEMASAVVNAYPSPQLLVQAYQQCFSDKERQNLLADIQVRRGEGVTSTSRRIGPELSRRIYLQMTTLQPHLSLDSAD

## 3HaMus81 (triple hemagglutinin (3Ha) tagged Hmus81), wild type
  endonuclease activity of immune-precipitates on a 3' flap substrate: The activity of 3HaMus81 was greatly increased in cells that had been co-transfected with FLAG-Eme1B
